According to paper PMC9638933:

Experiments:
[1] = target: KuWT;POL (Mycobacterium …, UniProt P9WKD9;P9WNV3 1-273;1-287, |); assay: EMSA; supershift; EMSA: 50 mM Tris-HCl pH 8.0, 50 mM NaCl, 1 mM DTT, 5 mM MgCl2, 4% glycerol, 0.025 mg/ml BSA, 10 nM DNA, 30 C 20 min; FP: 10 mM Tris-HCl pH 8, 10 mM NaCl, 10% glycerol, 1 mM TCEP, 50 nM DNA, 30 C; ternary EMSA: 20 mM Tris-HCl pH 8.0, 5 mM MgCl2, 5% glycerol, 37 C; bridging: 20 mM Tris-HCl pH 7.5, 50 mM KCl, 5 mM EDTA, 1 mM DTT, 5% glycerol, 40 ug/ml BSA, room temperature; conditions: protein: recombinant;recombinant; tags: His (Ni-NTA purified; pMCSG7);His (Ni-NTA purified); chain copies: 2;1; label: 5' 6-FAM on strand 1; blunt
Sequence of KuWT;POL (P9WNV3 1-287, one chain of several): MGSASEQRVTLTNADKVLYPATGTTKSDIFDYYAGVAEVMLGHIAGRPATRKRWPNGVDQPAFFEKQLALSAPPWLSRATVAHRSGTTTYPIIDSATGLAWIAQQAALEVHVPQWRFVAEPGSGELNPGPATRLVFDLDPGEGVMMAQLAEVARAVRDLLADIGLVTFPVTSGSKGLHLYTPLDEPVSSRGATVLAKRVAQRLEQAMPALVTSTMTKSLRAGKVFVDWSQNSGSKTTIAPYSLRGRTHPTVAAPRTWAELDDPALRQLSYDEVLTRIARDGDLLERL

[2] = target: Kumin;LIG (Mycobacterium …, UniProt P9WKD9;P9WNV3 1-259;454-759, |); assay: as above; conditions: protein: recombinant;recombinant; tags: His (Ni-NTA purified; pMCSG7);His (Ni-NTA purified); chain copies: 2;1; label: 5' 6-FAM on strand 1; blunt
Sequence of Kumin;LIG (P9WNV3 454-759, chain 2 of 2, one chain of several): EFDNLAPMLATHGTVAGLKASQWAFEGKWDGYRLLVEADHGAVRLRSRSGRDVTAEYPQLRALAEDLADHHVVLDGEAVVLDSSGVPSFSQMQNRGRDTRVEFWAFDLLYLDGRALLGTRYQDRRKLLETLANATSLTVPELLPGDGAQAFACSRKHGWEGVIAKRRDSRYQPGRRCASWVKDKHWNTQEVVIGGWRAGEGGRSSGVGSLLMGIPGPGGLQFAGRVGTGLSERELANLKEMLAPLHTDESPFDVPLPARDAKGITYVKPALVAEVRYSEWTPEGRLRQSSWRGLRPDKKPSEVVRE

[3] = target: LigD (UniProt P9WNV3 1-759); assay: fluorescence polarization; EMSA: 50 mM Tris-HCl pH 8.0, 50 mM NaCl, 1 mM DTT, 5 mM MgCl2, 4% glycerol, 0.025 mg/ml BSA, 10 nM DNA, 30 C 20 min; FP: 10 mM Tris-HCl pH 8, 10 mM NaCl, 10% glycerol, 1 mM TCEP, 50 nM DNA, 30 C; ternary EMSA: 20 mM Tris-HCl pH 8.0, 5 mM MgCl2, 5% glycerol, 37 C; bridging: 20 mM Tris-HCl pH 7.5, 50 mM KCl, 5 mM EDTA, 1 mM DTT, 5% glycerol, 40 ug/ml BSA, room temperature; conditions: protein: recombinant; tags: His (Ni-NTA purified; pMCSG7); label: 5' 6-FAM on strand 1; blunt
Sequence of LigD (P9WNV3 whole entry): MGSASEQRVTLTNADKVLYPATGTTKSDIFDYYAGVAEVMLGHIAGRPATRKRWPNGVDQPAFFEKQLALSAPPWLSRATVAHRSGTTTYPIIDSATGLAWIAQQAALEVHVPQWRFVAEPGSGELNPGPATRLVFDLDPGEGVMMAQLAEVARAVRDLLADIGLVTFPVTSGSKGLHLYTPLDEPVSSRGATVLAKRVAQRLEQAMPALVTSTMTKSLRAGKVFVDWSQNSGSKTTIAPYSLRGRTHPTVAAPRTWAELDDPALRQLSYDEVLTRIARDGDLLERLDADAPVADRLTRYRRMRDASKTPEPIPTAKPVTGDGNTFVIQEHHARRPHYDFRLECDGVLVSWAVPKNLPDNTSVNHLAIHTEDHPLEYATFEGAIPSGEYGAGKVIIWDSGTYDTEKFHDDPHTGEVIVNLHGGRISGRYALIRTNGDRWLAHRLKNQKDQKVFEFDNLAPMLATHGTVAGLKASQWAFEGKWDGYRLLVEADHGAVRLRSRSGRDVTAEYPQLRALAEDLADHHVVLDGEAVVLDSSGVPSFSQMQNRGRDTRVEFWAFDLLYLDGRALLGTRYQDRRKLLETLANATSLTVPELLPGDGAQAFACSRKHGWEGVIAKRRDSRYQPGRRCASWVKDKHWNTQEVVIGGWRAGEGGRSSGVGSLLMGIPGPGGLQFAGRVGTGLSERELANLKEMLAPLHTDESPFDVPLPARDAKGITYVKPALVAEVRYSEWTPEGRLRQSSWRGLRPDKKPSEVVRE

[4] = target: T1, Kucore (Mycobacterium tuberculosis, UniProt P9WKD9 1-238); assay: EMSA; 5 mM Mg2+; EMSA: 50 mM Tris-HCl pH 8.0, 50 mM NaCl, 1 mM DTT, 5 mM MgCl2, 4% glycerol, 0.025 mg/ml BSA, 10 nM DNA, 30 C 20 min; FP: 10 mM Tris-HCl pH 8, 10 mM NaCl, 10% glycerol, 1 mM TCEP, 50 nM DNA, 30 C; ternary EMSA: 20 mM Tris-HCl pH 8.0, 5 mM MgCl2, 5% glycerol, 37 C; bridging: 20 mM Tris-HCl pH 7.5, 50 mM KCl, 5 mM EDTA, 1 mM DTT, 5% glycerol, 40 ug/ml BSA, room temperature; conditions: protein: recombinant; tags: His (Ni-NTA purified; pMCSG7); chain copies: 2; label: 5' 6-FAM on strand 1; blunt
T1 sequence: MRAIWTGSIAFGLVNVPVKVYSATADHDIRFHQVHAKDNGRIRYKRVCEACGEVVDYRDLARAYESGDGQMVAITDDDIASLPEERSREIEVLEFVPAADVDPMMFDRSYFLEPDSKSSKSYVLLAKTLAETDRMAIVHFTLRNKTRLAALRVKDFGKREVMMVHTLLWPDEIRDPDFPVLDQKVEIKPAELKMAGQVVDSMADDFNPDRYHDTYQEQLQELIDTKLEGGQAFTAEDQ

[5] = target: T2, Kumin (Mycobacterium tuberculosis, UniProt P9WKD9 1-259); assay: as above; conditions: protein: recombinant; tags: His (Ni-NTA purified; pMCSG7); chain copies: 2; label: 5' 6-FAM on strand 1; blunt
T2 sequence: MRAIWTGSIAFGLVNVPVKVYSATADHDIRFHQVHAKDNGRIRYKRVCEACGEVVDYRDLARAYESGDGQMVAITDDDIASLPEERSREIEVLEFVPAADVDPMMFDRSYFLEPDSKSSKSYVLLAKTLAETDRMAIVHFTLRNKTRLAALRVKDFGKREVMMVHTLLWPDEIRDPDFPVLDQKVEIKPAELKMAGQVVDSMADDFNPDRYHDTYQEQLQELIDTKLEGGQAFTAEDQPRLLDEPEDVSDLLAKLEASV

B1: 40 bp dsDNA (dsDNA)
DNA 1: CAGGGTAAGTGTGGAGGTGTAGGGAAGGGAATGTTGTCTG
DNA 2: CAGACAACATTCCCTTCCCTACACCTCCACACTTACCCTG
- binding result [1]: binds
- binding result [2]: binds
- Kd [3]: 350 ± 30 nM
- Kd [4]: 70 ± 10 nM
- Kd [5]: 460 ± 80 nM
